{"source": "paper doi:10.1101/2025.09.11.675134", "about": "“Biodistribution-Driven Discovery Identifies a Glycosidase-Cleavable Linker to Reprogram Radiotheranostics” (bioRxiv, 2025)", "key": {"[1]": {"test": "PET/CT quantification of 86Y-labeled variants in AR42J xenograft mice", "format": "in vivo", "details": "athymic nude, mouse, in vivo, iv, total radioactivity", "method": "For studies involving three variants (DOTA -TATE, DOTA-MVK(ε)-TATE, and DOTA-β-Gal-TATE), AR42J cells (5 × 10^6 cells per mouse) were subcutaneously inoculated into the right shoulder of the mice. Tumors were allowed to grow for 3 weeks, reaching a volume of 100 –200 mm³ before being used in subsequent experiments. For biodistribution or PET imaging studies, mice bearing subcutaneous AR42J tumors were administered 1.4 – 1.8 MBq (1 μg) of 111In-labeled DOTA-TATE variants or 2.7 – 4.9 MBq (1 μg) of 86Y-labeled DOTA-TATE variants via […]\ntail vein injection. […]\nPET imaging to assess the uptake of three 86Y-labeled DOTA-TATE variants (2.7 – 4.9 MBq, 1 μg) in the kidney and tumor was performed at 1, 4, and 24 hours post-injection (n = 3 per cohort) in mice bearing AR42J tumors using the MRS*PET/CT 120 scanner (MR Solutions, Guildford, UK). PET/CT data acquisition was managed using Preclinical Scan software (version 4.2.4.0, MR Solutions). Mice were anesthetized with 2% isoflurane, and static PET sc ans were acquired over 10 min. CT scans were obtained for attenuation correction and anatomical co-registration.\nPET data were reconstructed using three-dimensional ordered-subsets expectation maximization, and were subsequently normalized, decay - and dead-time–corrected prior to analysis. PET/CT images were analyzed using MIM software (version 7.2.7, MIM Software Inc., Beachwood, OH, USA), and the quantitative evaluation of the maximum standardized uptake (SUVmax) and the average standardized uptake values (SUVmean) in the kidney and tumor were also performed. […]"}, "[2]": {"test": "Ex vivo biodistribution of 86Y-labeled variants in AR42J tumor-bearing mice", "details": "athymic nude, mouse, iv, 1 ug, total radioactivity, mean; for tissue uptake at 1 h: 1 h post-injection; for tissue uptake at 4 h: 4 h post-injection; for tissue uptake at 24 h: 24 h post-injection", "method": "To independently confirm these observations, ex vivo biodistribution studies were conducted using the same ^86Y-labeled compounds at matched timepoints (Fig. S16; Table S3). […]\nFor studies involving three variants (DOTA -TATE, DOTA-MVK(ε)-TATE, and DOTA-β-Gal-TATE), AR42J cells (5 × 10^6 cells per mouse) were subcutaneously inoculated into the right shoulder of the mice. Tumors were allowed to grow for 3 weeks, reaching a volume of 100 –200 mm³ before being used in subsequent experiments. For biodistribution or PET imaging studies, mice bearing subcutaneous AR42J tumors were administered 1.4 – 1.8 MBq (1 μg) of 111In-labeled DOTA-TATE variants or 2.7 – 4.9 MBq (1 μg) of 86Y-labeled DOTA-TATE variants via tail vein injection. Biodistribution studies with 111In-labeled DOTA -TATE variants were performed 1 hour post -injection (n = 3 per cohort), while studies with 86Y-labeled DOTA-TATE variants were conducted at 1, 4, and 24 hours post -injection (n = 3 per cohort). Mice were euthanized by CO2 asphyxiation, and 10 tissues, including tumors, were collected. All samples were weighed and counted on a gamma counter (2480 Wizard 3, Perkin Elmer Inc., Waltham, MA, USA). Results are presented as percentage of injected activity per gram (%IA/g) and mean values ± standard deviations. […]"}, "[3]": {"details": "blood, ex vivo, n = 3, read-out: Blood uptake"}, "[4]": {"details": "femur, ex vivo, n = 3, read-out: Femur uptake"}, "[5]": {"details": "heart, ex vivo, n = 3, read-out: Heart uptake"}, "[6]": {"details": "intestine, ex vivo, n = 3, read-out: Intestine uptake"}, "[7]": {"details": "ex vivo, n = 3, read-out: Tumor uptake"}, "[8]": {"details": "kidney, ex vivo, n = 3, read-out: Kidney uptake"}, "[9]": {"details": "liver, ex vivo, n = 3, read-out: Liver uptake"}, "[10]": {"details": "lung, ex vivo, n = 3, read-out: Lung uptake"}, "[11]": {"details": "muscle, ex vivo, n = 3, read-out: Muscle uptake"}, "[12]": {"details": "spleen, ex vivo, n = 3, read-out: Spleen uptake"}}, "note": "Read-outs that look alike come from different tables or passages of the source.", "data": [{"smiles": "CSCC[C@H](NC(=O)CN1CCN(CC(=O)O)CCN(CC(=O)O)CCN(CC(=O)O)CC1)C(=O)N[C@H](C(=O)N[C@@H](CCCCNC(=O)CCCC(=O)N[C@H](Cc1ccccc1)C(=O)N[C@H]1CSSC[C@@H](C(=O)N[C@H](C(=O)O)[C@@H](C)O)NC(=O)[C@H]([C@@H](C)O)NC(=O)[C@H](CCCCN)NC(=O)[C@@H](Cc2c[nH]c3ccccc23)NC(=O)[C@H](Cc2ccc(O)cc2)NC1=O)C(=O)O)C(C)C", "note": "[^86Y-DOTA-MVK(ε)-TATE, metal not drawn]", "values": [{"measurement": "SUV at 4 h", "setting": "[1]; Kidney SUVmax", "value": "0.42 ± 0.07", "unit": "SUV"}, {"measurement": "SUV at 24 h", "setting": "[1]; Kidney SUVmax", "value": "0.21 ± 0.01", "unit": "SUV"}, {"measurement": "SUV at 1 h", "setting": "[1]; Tumor SUVmax", "value": "1.31 ± 0.06", "unit": "SUV"}, {"measurement": "SUV at 4 h", "setting": "[1]; Tumor SUVmax", "value": "1.06 ± 0.14", "unit": "SUV"}, {"measurement": "SUV at 24 h", "setting": "[1]; Tumor SUVmax", "value": "1.04 ± 0.13", "unit": "SUV"}, {"measurement": "tissue uptake at 1 h", "setting": "[2]; blood, i.v. 1 μg (2.7–4.9 MBq), ex vivo gamma counting, n = 3, read-out: Blood uptake", "value": 0.32, "unit": "%ID/g"}, {"measurement": "tissue uptake at 4 h", "setting": "[2]; [3]", "value": 0.17, "unit": "%ID/g"}, {"measurement": "tissue uptake at 24 h", "setting": "[2]; [3]", "value": 0.02, "unit": "%ID/g"}, {"measurement": "tissue uptake at 1 h", "setting": "[2]; [4]", "value": 0.52, "unit": "%ID/g"}, {"measurement": "tissue uptake at 4 h", "setting": "[2]; [4]", "value": 0.21, "unit": "%ID/g"}, {"measurement": "tissue uptake at 24 h", "setting": "[2]; [4]", "value": 0.2, "unit": "%ID/g"}, {"measurement": "tissue uptake at 1 h", "setting": "[2]; [5]", "value": 0.35, "unit": "%ID/g"}, {"measurement": "tissue uptake at 4 h", "setting": "[2]; [5]", "value": 0.24, "unit": "%ID/g"}, {"measurement": "tissue uptake at 24 h", "setting": "[2]; [5]", "value": 0.08, "unit": "%ID/g"}, {"measurement": "tissue uptake at 1 h", "setting": "[2]; [6]", "value": 0.69, "unit": "%ID/g"}, {"measurement": "tissue uptake at 4 h", "setting": "[2]; [6]", "value": 0.46, "unit": "%ID/g"}, {"measurement": "tissue uptake at 24 h", "setting": "[2]; [6]", "value": 0.05, "unit": "%ID/g"}, {"measurement": "tissue uptake at 1 h", "setting": "[2]; [7]", "value": 5.02, "unit": "%ID/g"}, {"measurement": "tissue uptake at 4 h", "setting": "[2]; [7]", "value": 5.08, "unit": "%ID/g"}, {"measurement": "tissue uptake at 24 h", "setting": "[2]; [7]", "value": 4.53, "unit": "%ID/g"}, {"measurement": "tissue uptake at 1 h", "setting": "[2]; [8]", "value": 4.12, "unit": "%ID/g"}, {"measurement": "tissue uptake at 4 h", "setting": "[2]; [8]", "value": 3.78, "unit": "%ID/g"}, {"measurement": "tissue uptake at 24 h", "setting": "[2]; [8]", "value": 1.66, "unit": "%ID/g"}, {"measurement": "tissue uptake at 1 h", "setting": "[2]; [9]", "value": 0.17, "unit": "%ID/g"}, {"measurement": "tissue uptake at 4 h", "setting": "[2]; [9]", "value": 0.15, "unit": "%ID/g"}, {"measurement": "tissue uptake at 24 h", "setting": "[2]; [9]", "value": 0.06, "unit": "%ID/g"}, {"measurement": "tissue uptake at 1 h", "setting": "[2]; [10]", "value": 0.79, "unit": "%ID/g"}, {"measurement": "tissue uptake at 4 h", "setting": "[2]; [10]", "value": 0.47, "unit": "%ID/g"}, {"measurement": "tissue uptake at 24 h", "setting": "[2]; [10]", "value": 0.13, "unit": "%ID/g"}, {"measurement": "tissue uptake at 1 h", "setting": "[2]; [11]", "value": 0.45, "unit": "%ID/g"}, {"measurement": "tissue uptake at 4 h", "setting": "[2]; [11]", "value": 0.23, "unit": "%ID/g"}, {"measurement": "tissue uptake at 24 h", "setting": "[2]; [11]", "value": 0.09, "unit": "%ID/g"}, {"measurement": "tissue uptake at 1 h", "setting": "[2]; [12]", "value": 0.25, "unit": "%ID/g"}, {"measurement": "tissue uptake at 4 h", "setting": "[2]; [12]", "value": 0.22, "unit": "%ID/g"}, {"measurement": "tissue uptake at 24 h", "setting": "[2]; [12]", "value": 0.14, "unit": "%ID/g"}]}]}
